Test results published in the supplement of paper PMC9170038.

System: MS2 coat protein
Test: apparent KD of MS2 coat protein; designed switch direction (-1 OFF switch, 1 ON switch): -1; higher = weaker reporter binding
Method in brief: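 The buffer was Tris-HCl pH 7.5 with KCl, MgCl2, BSA, DTT, tRNA and Tween-20. In it, SNAP-549-labelled MS2 coat protein was titrated in doubling steps from 0.7 or 1.5 nM to 3 µM over chip-bound RNA switches transcribed by stalled E. coli RNA polymerase on Illumina chips. Apparent KD is the per-design median over clusters of curve fits to normalised fluorescence.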

[1] = Eterna round: R95, input ligand: FMN 200 uM
[2] = Eterna round: R95, input ligand: microRNA oligo, concentration not stated
[3] = Eterna round: R95, input ligand: none
[4] = input ligand: microRNA oligo, concentration not stated

Sequence	apparent KD of MS2 coat protein [1] [nM]	apparent KD of MS2 coat protein [2] [nM]	apparent KD of MS2 coat protein [3] [nM]	apparent KD of MS2 coat protein (input ligand: FMN 200 uM) [nM]	apparent KD of MS2 coat protein (input ligand: none) [nM]	apparent KD of MS2 coat protein [4] [nM]
ACAAGAAUUUUGCUCGUAAAGUAGAAACGCGAGAGCGAGACAUGAGGAUCACCCAUGUAAAGGCAGUAGGUGGAGAU [JR_SV3TOV2_Sub027] (puzzle: Sensor v3, turn-off variant 2)	49.3	50.9	46.1	–	–	–
CCGGAACAUGAGGAUCACCCAUGUGAGGAUAUCGUACGUUCGUCGAAAGACGAUCGUACGAGAAGGCACGCCGG [Eli x1 4.33] (Eterna round: R97, puzzle: Exclusion 1)	–	–	–	17.2	14.6	–
UGCUACGGAGGAUAUACAUGAGGAUCACCCAUGUGAUAGAUUAUGCCGAGAGGCUAGUGUAGAAGGCCGUAGCU [jl-ex3-4.14 jl mod] (Eterna round: R97, puzzle: Exclusion 3)	–	–	–	683	189	–
AAGAAACAUGAGGAUCACCCAUGUGAGGAUAUGUAAAAUAAAAGAAAAGAAAGAAGAAACAGAAGGCACAAAGG [Mat - Mod of Hog D13] (puzzle: Exclusion 1)	47.3	35.4	47.5	–	–	–
CAGCUGAAUGUGAGGAUAUGUCGAGCUGCGGCUCGAUAGAAGGCACAUGAGGAUCACCCAUGUCUCAACAGCUG [BmEx4/2-C3] (Eterna round: R97, puzzle: Brourd's mod of Exclusion 4)	–	–	–	215	31.2	–
AAUAGUAAUAAGGAUAUCACUAGCUUCGGCUAGUGAGAAGGUAUUACAUGAGGAUCACCCAUGUGGUCAAUUAA [E6/4-A1] (Eterna round: R97, puzzle: Exclusion 6)	–	–	–	360	922	–
UUUACAAGCUAUAGAUCCCACAUGAGGAUCACCCAUGUUGCUGCCAACGGUAGCUUUUUAUGGUUUGCUCGUCUUAU [JL TOV1 3.35] (Eterna round: R97, puzzle: Sensor, turn-off variant 1)	–	–	–	443	1860	–
ACAAGCUUUUAGUUCGUCUUAUACACUCCUAAUAAGAAAACAUGAGGAUCACCCAUGUAAGAAAUAAGAACUCAUGU [Sesor Array 2 - Jieux - Sensor v3, turn-off variant 2] (puzzle: Sensor v3, turn-off variant 2)	151	396	209	–	–	–
GGAGCAAUGGAGGAUAUCAGGAGCGCUGCUUACUGAGAAGGCCGUACAUGAGGAUCACCCAUGUCUGGGUACGC [Eternabot (L1) Solution 21] (Eterna round: R97, puzzle: Exclusion 6)	–	–	–	176	167	–
UGACACACCUGAGGAUAUUCUGAACGUUUCCCAGAAGAAGGUAGGUACAGCGGGAGCGCCACAUGAGGAUCACCCAUGUCUACC [Eternabot solution 46] (Eterna round: R96, puzzle: Exclusion NG 1)	–	–	–	126	142	103
UGAUCAGACCGAGGAUAUACAUGUAGGACCCACGUGAGUGGGUCCAUUACAUGAGGAUCACCCAUGUAGAAGGCGGUCUGAUCU [JL ENG2 1.90] (Eterna round: R96, puzzle: Exclusion NG 2)	–	–	–	313	139	97.7
AGUUGGCGAGGAUAUACAUGAGGAUCACCCAUGUGAGGGAUACUAGUGAGGUCGAUUAGUAGAAGGCGCUGACA [Mat X3R4 m9] (Eterna round: R97, puzzle: Exclusion 3)	–	–	–	839	56.1	–
GCCGAAAGUGUGAGGAUAUACCUAUGGAUACAUAGGUAGAAGGCACAUGAGGAUCACCCAUGUUCCUCAUCGGC [Eli bmx4 4.17] (Eterna round: R97, puzzle: Brourd's mod of Exclusion 4)	–	–	–	551	92.8	–
AUUAGCUGAGGAUAUGCAGCUUUGUUCGUCGAGUGAAAAGAACAUGAGGAUCACCCAUGUAGAAGGCAGUUGAC [Raargexe] (puzzle: Exclusion 2)	–	14.8	–	–	–	–
